Results taken from article PMC11787620 (iScience, 2025).

B1: LexAPa^CTD G91D (LexAPa C-terminal domain, Gly81 to Arg204, with the inactivating G91D mutation on the cleavage site) (domain or fragment, Pseudomonas aeruginosa (ATCC 27853), UniProt P37452 81-204, looked up)
chain: GLPVIGRVAADAPILAEQNIEESCRINPAFFNPRADYLLRVRGMSMKDIGILDGDLLAVHVTREARNGQVVVARIGEEVTVKRFKREGSKVWLLAENPEFAPIEVDLKEQELIIEGLSVGVIRR
B2: LexAPaS125A (full-length P. aeruginosa LexA carrying the S125A mutation in the catalytic dyad) (natural protein, Pseudomonas aeruginosa (ATCC 27853), UniProt P37452 1-204, looked up)
chain: MQKLTPRQAEILSFIKRCLEDHGFPPTRAEIAQELGFKSPNAAEEHLKALARKGAIEMTPGASRGIRIPGFEPHAANDDEGLPVIGRVAAGAPILAEQNIEESCRINPAFFNPRADYLLRVRGMAMKDIGILDGDLLAVHVTREARNGQVVVARIGEEVTVKRFKREGSKVWLLAENPEFAPIEVDLKEQELIIEGLSVGVIRR

Target: the molecule itself
Assay: SEC

Protein | stoichiometry N
B1 | 2
B2 | 2
